Laboratory results reported in the supplement of paper PMC6757056.
± gives the standard deviation of the averaged measurements.

B1: library; a variant is named by its letters at N, in order (parent)
chain: GCUGUCACCGGUGUAUUACCCUAGUGGUCGACCGGUCUGAUGAGUCUNNNNNNAGACGAAACAGC

Experiments:
hypoxanthine [1] = variants of: B1; assay: FACS-Seq fitted mean relative fluorescence mCherry/BFP without ligand (log10 relative fluorescence); ligand: hypoxanthine (xanthine aptamer); higher = higher reporter protein expression; settings: HEK293T, ligand present: no
Procedure, shortened: (§1)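 Fluorescence comes from a normal fit to bin counts, normalized against controls. HEK293T libraries lentivirally given a ribozyme-switch mCherry reporter and an EF1α-BFP marker were enriched, incubated 48 h with or without ligand, and sorted by mCherry/BFP into 6 bins. Bin genomic DNA was PCR-amplified, barcoded and sequenced on MiSeq. The log10(mCherry/BFP) mean was scaled to five spiked-in control ribozymes.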

hypoxanthine [2] = variants of: B1; assay: normalized RNA/DNA level with ligand (relative to sTRSVctl = 100) (log10 (% of sTRSVctl)); ligand: hypoxanthine (xanthine aptamer); higher = less ribozyme self-cleavage, higher mRNA level; settings: ligand concentration (+) RNA-Seq: 5 mM, HEK293T, reporter: mCherry (pCS4076), ligand present: yes
Experimental: (§2)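 Hammerhead (sTRSV) ribozyme switch libraries with a ligand aptamer grafted on stem I and a randomized N4-6 loop II, cloned into the 3' UTR of mCherry and transiently transfected into HEK293T cells; RNA-Seq 72 h post transfection with ligand added 1 h before transfection; RNA read count / plasmid DNA read count normalized to the non-cleaving sTRSVctl (x100), log10; sequences with >100 DNA reads. FACS-Seq: lentiviral library sorted into 6 bins after 48 h ligand, log-normal fit mean of mCherry/BFP scaled to controls. Printed sequences are partial switch sequences.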

hypoxanthine [3] = variants of: B1; assay: normalized RNA/DNA level without ligand (relative to sTRSVctl = 100) (log10 (% of sTRSVctl)); ligand: hypoxanthine (xanthine aptamer); higher = less ribozyme self-cleavage, higher mRNA level; settings: HEK293T, reporter: mCherry (pCS4076), ligand present: no
Experimental: as §2

hypoxanthine [4] = variants of: B1; assay: FACS-Seq fitted mean relative fluorescence mCherry/BFP with ligand (log10 relative fluorescence); ligand: hypoxanthine (xanthine aptamer); ligand concentration (+) FACS-Seq: 5 mM; higher = higher reporter protein expression; settings: HEK293T, ligand present: yes
Procedure, shortened: as §1

Variant	FACS-Seq fitted mean (log10) (hypoxanthine [1])	normalized RNA/DNA level with ligand (log10) (hypoxanthine [2])	normalized RNA/DNA level without ligand (log10) (hypoxanthine [3])	FACS-Seq fitted mean (log10) (hypoxanthine [4])
GCCAUG	0.392 ± 0.0043	1.87 ± 0.094	1.48 ± 0.15	0.683 ± 0.074
GCGAGU	0.238 ± 0.013	1.86 ± 0.044	1.23 ± 0.059	0.662 ± 0.069
GCGAGG	-0.188 ± 0.032	1.637 ± 0.015	1.11 ± 0.036	0.5 ± 0.017
GCGAGA	-0.0976 ± 0.016	1.8 ± 0.042	1.31 ± 0.0073	0.312 ± 0.025
ACCCGG	0.195 ± 0.055	1.89 ± 0.034	1.48 ± 0.019	0.714 ± 0.058
ACCGAU	0.387 ± 0.047	1.89 ± 0.056	1.669 ± 0.0087	0.531 ± 0.015
ACAUGU	0.399 ± 0.057	1.91 ± 0.052	1.65 ± 0.061	0.567 ± 0.024
ACAUGA	0.3098 ± 0.0019	1.91 ± 0.019	1.66 ± 0.026	0.509 ± 0.021
ACAUGG	0.335 ± 0.022	1.87 ± 0.035	1.29 ± 0.027	0.631 ± 0.1
CCCGCA	-0.714 ± 0.04	1.94 ± 0.028	1.91 ± 0.022	-0.0625 ± 0.038
CCCCAA	-0.321 ± 0.081	1.92 ± 0.018	1.78 ± 0.046	-0.16 ± 0.025
UCCAAG	0.264 ± 0.033	1.897 ± 0.015	1.54 ± 0.036	0.457 ± 0.044
UCCAAA	0.00132 ± 0.058	1.937 ± 0.0063	1.804 ± 0.0049	0.0172 ± 0.041
ACCGGG	0.153 ± 0.0079	1.944 ± 0.015	1.89 ± 0.038	0.548 ± 0.0066
CCCUGA	0.263 ± 0.023	1.92 ± 0.031	1.88 ± 0.039	0.308 ± 0.011
CCCAAG	0.293 ± 0.059	1.91 ± 0.033	1.6 ± 0.079	0.439 ± 0.018
CCCAAA	0.477 ± 0.017	1.922 ± 0.019	1.84 ± 0.036	0.617 ± 0.11
GCCUUA	-0.138 ± 0.047	1.97 ± 0.0091	1.92 ± 0.026	-0.197 ± 0.092

Variant	FACS-Seq fitted mean (log10) (hypoxanthine [1])	normalized RNA/DNA level with ligand (log10) (hypoxanthine [2])	normalized RNA/DNA level without ligand (log10) (hypoxanthine [3])	FACS-Seq fitted mean (log10) (hypoxanthine [4])
GCCUUC	-0.325 ± 0.056	1.968 ± 0.0039	1.88 ± 0.058	0.101 ± 0.059
GCCUUG	0.213 ± 0.0088	1.93 ± 0.05	1.46 ± 0.016	0.64 ± 0.021
UCCGCG	0.209 ± 0.032	1.894 ± 0.009	1.512 ± 0.011	0.621 ± 0.055
GCAUGC	-0.393 ± 0.035	1.926 ± 0.01	1.74 ± 0.14	-0.314 ± 0.05
GCAUGG	0.196 ± 0.083	1.83 ± 0.052	1.33 ± 0.063	0.701 ± 0.049
GCCCAG	0.0481 ± 0.032	1.81 ± 0.052	1.4 ± 0.027	0.24 ± 0.019
UCCGUG	0.223 ± 0.023	1.91 ± 0.071	1.47 ± 0.072	0.508 ± 0.065
UCCGUU	-0.463 ± 0.04	1.946 ± 0.016	1.925 ± 0.019	-0.148 ± 0.1
UCCUAC	0.76 ± 0.022	2.01 ± 0.096	1.88 ± 0.076	0.751 ± 0.058
GCCUAA	0.363 ± 0.14	1.94 ± 0.071	1.8319 ± 0.00042	0.558 ± 0.036
GCCUAG	0.303 ± 0.03	1.89 ± 0.097	1.5 ± 0.12	0.678 ± 0.037
ACAUUC	0.36 ± 0.034	1.979 ± 0.0095	1.92 ± 0.062	0.421 ± 0.02
GCGAAU	-0.142 ± 0.009	1.833 ± 0.015	1.417 ± 0.013	0.291 ± 0.022
GCGAAC	0.0198 ± 0.0047	1.711 ± 0.0065	1.13 ± 0.044	0.61 ± 0.033
GCGAAG	-0.383 ± 0.014	1.46 ± 0.12	0.925 ± 0.14	0.417 ± 0.06
GCGAAA	0.172 ± 0.045	1.878 ± 0.0072	1.49 ± 0.019	0.404 ± 0.021
UCCGAG	0.3183 ± 0.002	1.82 ± 0.054	1.38 ± 0.049	0.517 ± 0.0072
UCGAAA	0.163 ± 0.02	1.86 ± 0.052	1.4 ± 0.051	0.395 ± 0.045
